Legend:
[1] = tested on: tyrosine hydroxylase (TH); experiment: TH activity (DOPA levels after NSD-1015) in N27 cells; type: cell-based, rat; settings: 2 mM NSD-1015, rottlerin 3 hr vs DMSO, PKCδ-DN vs LacZ
Procedure: Plasmid pPKCδ^K376R-V5 encodes the loss of function PKCδ-V5 epitope tagged mutant protein; K376R refers to the mutation of the lysine residue at position 376 to arginine in the catalytic site resulting in inactivation of the kinase. Plasmid pLacZ-V5 encodes the β-galactosidase protein alone with a V5-epitope and is used as a vector control. N27 cells stably expressing PKCδ^K376R-V5 (herein referred to as PKCδ-DN cells) and LacZ alone-expressing cells (LacZ cells) were cultured as described previously (Kitazawa et al., 2005). PKCδ-DN or LacZ expressing N27 cells were identified by immunostaining of the C-terminal V5 epitope on expressed proteins and were differentiated with cAMP analogs (e.g. dibutyral cAMP) prior to experiments. PKCδ-DN and LacZ were also transiently expressed in mouse primary mesencephalic neurons using an AMAXA® Nucleofector™ kit (AMAXA GmbH, Germany). As described above, primary mesencephalic neurons were prepared from the midbrain of 16-18-day-old mice embryos. After digestion with trypsin-EDTA-HBSS, the primary neurons were homogenously resuspended with transfection buffer provided with the kit to a final concentration of 4-5×10^6 neurons/100 μl and mixed with 1 μg plasmid DNA encoding either PKCδ-DN-V5 or LacZ-V5. […] Transfection efficiency was >75% as determined by immunostaining of V5-expression. […]

N27 cells = experiment: Cellular DA and DOPAC levels in N27 cells (HPLC-EC); type: cell-based, rat; settings: N27 cells; rottlerin vs vehicle, PKCδ-DN vs LacZ
Procedure: (§1) PC12 cells, differentiated N27 dopaminergic cells and primary mesencephalic neurons were exposed to 1-10 μM rottlerin for the duration of the experiment. DMSO (0.01%) was used as vehicle control. PKCδ-DN- and Lac Z-expressing N27 cells were only treated with 0.01% DMSO. […] Untreated or vehicle treated cells were used as control samples.
DA and DOPAC levels in PC12, N27 cells and in brain striatal tissues were determined by high-performance liquid chromatography with electrochemical detection (HPLC-EC); samples were prepared as described previously (Kitazawa et al., 2001). The DA and DOPAC levels were measured as pg/mg protein and expressed as percent of control.

[2] = tested on: tyrosine hydroxylase (TH); experiment: TH phosphorylation in N27 cells (Western blot, immunofluorescence); type: cell-based, rat
Procedure: as §1
Cell and brain lysates containing equal amounts of protein were loaded in each lane and separated on a 10-12% SDS-PAGE gel as described previously (Kaul et al., 2003). After the separation, proteins were transferred to nitrocellulose membrane, and nonspecific binding sites were blocked by treating with 5% nonfat dry milk powder. The membranes were then treated with primary antibodies directed against PKCδ (rabbit polyclonal or mouse monoclonal, 1:2000 dilution), TH (rabbit polyclonal or mouse monoclonal, 1:1000), phospho TH-ser40 (rabbit polyclonal, 1:1000), phospho TH-ser31 TH (rabbit polyclonal, 1:1000), or PP2A (mouse monoclonal, 1:1000). The primary antibody treatments were followed by treatment with secondary HRP-conjugated anti-rabbit or anti-mouse IgG (1:2000) for 1 hr at RT. Secondary antibody-bound proteins were detected using Amersham's ECL chemiluminescence kit. To confirm equal protein loading, blots were reprobed with a β-actin antibody (1:5000 dilution). Western blot images were captured with a Kodak 2000 MM imaging system and data were analyzed using 1D Kodak imaging analysis software.
Immunostaining of PKCδ, TH, Ser40 P-TH and Ser31 P-TH was performed in PC12, N27 and primary mesencephalic neurons. Cells were grown on poly-L-Lysine-coated glass cover slips. After treatment, the cells were fixed with 4% paraformaldehyde and processed for immunohistochemical staining. […] Then the coverslips containing stained cells were washed with PBS, mounted on a slide, and viewed under a Nikon inverted fluorescence microscope (Model TE-2000U); images were captured with a SPOT digital camera (Diagnostic Instruments, Sterling Heights, Mich.).

[3] = tested on: tyrosine hydroxylase (TH); experiment: TH-ser40 phosphorylation in primary mesencephalic neurons (immunofluorescence); type: cell-based, mouse; settings: primary neurons, 24 hr post-transfection
Procedure: PC12 and N27 cells were cultured as described earlier (Anantharam et al., 2002; Kaul et al., 2003). Briefly, cells were grown in RPMI 1640 medium containing 10% fetal bovine serum, 2 mM L-glutamine, 50 units of penicillin, and 50 μg/ml streptomycin. Cells were maintained in a humidified atmosphere of 5% CO2 at 37° C. N27 cells were differentiated with 2 mM dibutyryl cAMP for 3-5 days and then used for experiments described below. Primary mesencephalic neuronal cultures were prepared from the ventral mesencephalon of gestational 16-18-day-old mice embryos as described previously (Yang et al., 2004). Mesencephalic tissues were dissected and maintained in ice-cold Ca^2+-free HESS and then dissociated in HBSS solution containing trypsin-EDTA (0.25%) for 20 min at 37° C. The dissociated cells were then plated at equal density (0.5×10^6 cells) in 30-mm-diameter tissue culture wells precoated with poly-L-lysine (1 mg/ml). […]
Plasmid pPKCδ^K376R-V5 encodes the loss of function PKCδ-V5 epitope tagged mutant protein; K376R refers to the mutation of the lysine residue at position 376 to arginine in the catalytic site resulting in inactivation of the kinase. […] Transfection efficiency was >75% as determined by immunostaining of V5-expression. […]

PP2A = PP2A phosphatase activity in N27 cells (Serine/Threonine phosphatase assay kit); type: cell-based, rat; settings: rottlerin vs DMSO, PKCδ-DN vs LacZ
Procedure: To determine PP2A phosphatase activity, we used the Serine/Threonine phosphatase assay kit from Promega. Briefly, N27 cells and substantia nigral tissue from mouse brain were homogenized in lysis buffer (25 mM Tris-HCl, 10 mM β-mercaptoethanol, 2 mM EDTA, protease inhibitor) supplied with the kit. After centrifugation, the supernatants were used for the assay. PP2A activity was determined by measuring the amount of free phosphate generated in a reaction by measuring the absorbance of a molybdate:malachite green: phosphate complex at 600 nm using the Spectramax plate reader (Molecular Devices). The effective range for the detection of phosphate released in this assay is 100-4,000 pmol of phosphate.

B1: PKCδ-DN: loss of function PKCδ-V5 epitope tagged mutant protein, lysine 376 to arginine, kinase inactive (protein, UniProt P28867 1-674, looked up, variant K376R)
chain: MAPFLRISFNSYELGSLQVEDEASQPFCAVKMKEALSTERGKTLVQKKPTMYPEWKTTFDAHIYEGRVIQIVLMRAAEDPVSEVTVGVSVLAERCKKNNGKAEFWLDLQPQAKVLMCVQYFLEDGDCKQSMRSEEEAKFPTMNRRGAIKQAKIHYIKNHEFIATFFGQPTFCSVCKEFVWGLNKQGYKCRQCNAAIHKKCIDKIIGRCTGTATNSRDTIFQKERFNIDMPHRFKVYNYMSPTFCDHCGSLLWGLVKQGLKCEDCGMNVHHKCREKVANLCGINQKLLAEALNQVTQRSSRKLDTTESVGIYQGFEKKPEVSGSDILDNNGTYGKIWEGSTRCTLENFTFQKVLGKGSFGKVLLAELKGKDKYFAIRCLKKDVVLIDDDVECTMVEKRVLALAWESPFLTHLICTFQTKDHLFFVMEFLNGGDLMFHIQDKGRFELYRATFYAAEIICGLQFLHSKGIIYRDLKLDNVMLDRDGHIKIADFGMCKENIFGEGRASTFCGTPDYIAPEILQGLKYSFSVDWWSFGVLLYEMLIGQSPFHGDDEDELFESIRVDTPHYPRWITKESKDIMEKLFERDPDKRLGVTGNIRIHPFFKTINWSLLEKRKVEPPFKPKVKSPSDYSNFDPEFLNEKPQLSFSDKNLIDSMDQEAFHGFSFVNPKFEQFLDI
modifications: full-length V5 epitope tag
Work on B1 yielded a TH activity [1] of 2539±307.3 pg DOPA/10^6 cells/hr, a DA level (N27 cells) of 4806±373 pg/μg protein and a DOPAC levels (N27 cells) of 2783±968.31 pg/μg protein. For the same molecule, the “increase in DA level” value (N27 cells) was 4 fold, the “increase in DOPAC levels” value (N27 cells) was 3 fold and the THser31 phosphorylation level ([2]; N27 cells) was “unaltered”. The “level of total TH” value ([2]; N27 cells) was “unaltered”, the “fluorescent intensity of TH-ser40 immunostaining, increase versus Lac-Z” value ([2]; N27 cells stably expressing PKCδ-DN) was 2.5 fold and the “fluorescence of TH-ser40 immunostaining versus Lac-Z expressing neurons” value [3] was “about 2.5 times”. For the same molecule, the “reduction of PP2A activity” value (PP2A) was 56%.

— patent US8653023B1, “Dual beneficial effect of dopamine enhancing and neuroprotective actions of PKC delta inhibitors for treatment of Parkinson's disease” (Iowa State University Research Foundation, Inc., priority 2006, dated 2014)
